This note sets out measurements from paper PMC2474558 (Biochemical Journal, 2008).

The assay concerns the target hDOP–Renilla luciferase (human, UniProt P41143 1-372). The experiment in a line: FRET or BRET. (In BRET a luciferase serves as donor, and the signal depends on an acceptor being close.)

Chain of hDOP–Renilla luciferase (P41143 whole entry): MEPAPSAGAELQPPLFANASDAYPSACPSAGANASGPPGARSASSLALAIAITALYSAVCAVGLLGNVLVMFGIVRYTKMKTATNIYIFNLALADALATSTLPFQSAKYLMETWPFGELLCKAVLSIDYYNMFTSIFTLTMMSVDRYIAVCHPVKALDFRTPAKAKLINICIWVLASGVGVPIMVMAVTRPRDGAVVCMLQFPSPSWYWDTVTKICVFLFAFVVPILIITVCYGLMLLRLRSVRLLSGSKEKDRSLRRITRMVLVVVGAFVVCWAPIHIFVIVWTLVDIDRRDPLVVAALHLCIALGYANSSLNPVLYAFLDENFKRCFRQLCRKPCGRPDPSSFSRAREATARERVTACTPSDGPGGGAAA

B1: hCXCR2–GFP^2 (receptor)
chain: MEDFNMESDSFEDFWKGEDLSNYSYSSTLPPFLLDAAPCEPESLEINKYFVVIIYALVFLLSLLGNSLVMLVILYSRVGRSVTDVYLLNLALADLLFALTLPIWAASKVNGWIFGTFLCKVVSLLKEVNFYSGILLLACISVDRYLAIVHATRTLTQKRYLVKFICLSIWGLSLLLALPVLLFRRTVYSSNVSPACYEDMGNNTANWRMLLRILPQSFGFIVPLLIMLFCYGFTLRTLFKAHMGQKHRAMRVIFAVVLIFLLCWLPYNLVLLADTLMRTQVIQETCERRNHIDRALDATEILGILHSCLNPLIYAFIGQKFRHGLLKILAIHGLISKDSLPKDSRPSFVGSSSGHTSTTL
For the molecule B1, the BRET50 is 0.34 ± 0.02 [acceptor] to [donor] ratio.
